Patent US20230340151A1 (Pfizer, published 2023)

Assays:
Experiment in all cases: peptide DELFIA ELISA;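 note: epitope mapping using overlapping 20-mer GUCY2C peptides covering residues 1-440, extracellular into transmembrane domain, coated at 20 µg/ml as target antigen and probed with antibodies or GUCY2C-CD3 bispecifics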
GUCY2C_ECD Peptide 8 = target: T1, GUCY2C_ECD Peptide 8 (human)
T1 peptide: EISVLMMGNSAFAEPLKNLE
Protocol: (§1) Arrays were reconstituted with acetonitrile to 100 μg/ml and were then further diluted to 20 μg/ml with sodium carbonate/bicarbonate buffer. Purified antibodies or GUCY2c-CD3 bispecifics were then tested by Delfia ELISA for binding to the different peptides using Delfia ELISA methods previously discussed, with diluted peptides used as the target antigen.

GUCY2C_ECD Peptide 76 = target: T2, GUCY2C_ECD Peptide 76 (human)
T2 peptide: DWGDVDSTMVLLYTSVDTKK
Protocol: as §1

GUCY2C_ECD Peptide 25 = target: T3, GUCY2C_ECD Peptide 25 (human)
T3 peptide: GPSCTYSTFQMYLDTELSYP
Protocol: as §1

GUCY2C_ECD Peptide 75 = target: T4, GUCY2C_ECD Peptide 75 (human)
T4 peptide: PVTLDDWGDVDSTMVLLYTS
Protocol: as §1

GUCY2C_ECD Peptide 62 = target: T5, GUCY2C_ECD Peptide 62 (human)
T5 peptide: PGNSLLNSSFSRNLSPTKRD
Protocol: as §1

GUCY2C_ECD Peptide 50 = target: T6, GUCY2C_ECD Peptide 50 (human)
T6 peptide: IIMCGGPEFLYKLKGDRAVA
Protocol: as §1

GUCY2C_ECD Peptide 58 = target: T7, GUCY2C_ECD Peptide 58 (human)
T7 peptide: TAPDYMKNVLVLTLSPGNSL
Protocol: as §1

GUCY2C_ECD Peptide 40 = target: T8, GUCY2C_ECD Peptide 40 (human)
T8 peptide: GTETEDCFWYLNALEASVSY
Protocol: as §1

GUCY2C_ECD Peptide 13 = target: T9, GUCY2C_ECD Peptide 13 (human)
T9 peptide: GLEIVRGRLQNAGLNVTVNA
Protocol: as §1

GUCY2C_ECD Peptide 88 = target: T10, GUCY2C_ECD Peptide 88 (human)
T10 peptide: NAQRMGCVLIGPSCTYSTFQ
Protocol: as §1

GUCY2C_ECD Peptide 44 = target: T11, GUCY2C_ECD Peptide 44 (human)
T11 peptide: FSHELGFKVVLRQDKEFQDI
Protocol: as §1

GUCY2C_ECD Peptide 79 = target: T12, GUCY2C_ECD Peptide 79 (human)
T12 peptide: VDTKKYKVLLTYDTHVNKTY
Protocol: as §1

GUCY2C_ECD Peptide 78 = target: T13, GUCY2C_ECD Peptide 78 (human)
T13 peptide: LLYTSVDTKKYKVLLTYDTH
Protocol: as §1

GUCY2C_ECD Peptide 32 = target: T14, GUCY2C_ECD Peptide 32 (human)
T14 peptide: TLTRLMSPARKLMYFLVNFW
Protocol: as §1

GUCY2C_ECD Peptide 23 = target: T15, GUCY2C_ECD Peptide 23 (human)
T15 peptide: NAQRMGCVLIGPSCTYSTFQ
Protocol: as §1

GUCY2C_ECD Peptide 52 = target: T16, GUCY2C_ECD Peptide 52 (human)
T16 peptide: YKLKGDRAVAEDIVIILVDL
Protocol: as §1

GUCY2C_ECD Peptide 74 = target: T17, GUCY2C_ECD Peptide 74 (human)
T17 peptide: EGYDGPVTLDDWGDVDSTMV
Protocol: as §1

GUCY2C_ECD Peptide 7 = target: T18, GUCY2C_ECD Peptide 7 (human)
T18 peptide: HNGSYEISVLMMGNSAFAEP
Protocol: as §1

GUCY2C_ECD Peptide 46 = target: T19, GUCY2C_ECD Peptide 46 (human)
T19 peptide: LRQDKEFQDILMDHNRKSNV
Protocol: as §1

GUCY2C_ECD Peptide 5 = target: T20, GUCY2C_ECD Peptide 5 (human)
T20 peptide: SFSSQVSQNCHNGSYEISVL
Protocol: as §1

GUCY2C_ECD Peptide 17 = target: T21, GUCY2C_ECD Peptide 17 (human)
T21 peptide: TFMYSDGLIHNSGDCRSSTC
Protocol: as §1

GUCY2C_ECD Peptide 86 = target: T22, GUCY2C_ECD Peptide 86 (human)
T22 peptide: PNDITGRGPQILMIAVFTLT
Protocol: as §1

GUCY2C_ECD Peptide 68 = target: T23, GUCY2C_ECD Peptide 68 (human)
T23 peptide: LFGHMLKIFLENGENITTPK
Protocol: as §1

GUCY2C_ECD Peptide 22 = target: T24, GUCY2C_ECD Peptide 22 (human)
T24 peptide: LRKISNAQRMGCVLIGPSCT
Protocol: as §1

GUCY2C_ECD Peptide 37 = target: T25, GUCY2C_ECD Peptide 37 (human)
T25 peptide: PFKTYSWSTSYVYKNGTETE
Protocol: as §1

GUCY2C_ECD Peptide 69 = target: T26, GUCY2C_ECD Peptide 69 (human)
T26 peptide: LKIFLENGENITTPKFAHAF
Protocol: as §1

GUCY2C_ECD Peptide 30 = target: T27, GUCY2C_ECD Peptide 30 (human)
T27 peptide: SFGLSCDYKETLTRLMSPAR
Protocol: as §1

GUCY2C_ECD Peptide 63 = target: T28, GUCY2C_ECD Peptide 63 (human)
T28 peptide: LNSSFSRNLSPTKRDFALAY
Protocol: as §1

GUCY2C_ECD Peptide 53 = target: T29, GUCY2C_ECD Peptide 53 (human)
T29 peptide: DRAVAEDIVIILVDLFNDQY
Protocol: as §1

GUCY2C_ECD Peptide 9 = target: T30, GUCY2C_ECD Peptide 9 (human)
T30 peptide: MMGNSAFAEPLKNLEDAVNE
Protocol: as §1

GUCY2C_ECD Peptide 43 = target: T31, GUCY2C_ECD Peptide 43 (human)
T31 peptide: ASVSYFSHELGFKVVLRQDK
Protocol: as §1

GUCY2C_ECD Peptide 26 = target: T32, GUCY2C_ECD Peptide 26 (human)
T32 peptide: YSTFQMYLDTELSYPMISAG
Protocol: as §1

GUCY2C_ECD Peptide 60 = target: T33, GUCY2C_ECD Peptide 60 (human)
T33 peptide: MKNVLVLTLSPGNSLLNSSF
Protocol: as §1

GUCY2C_ECD Peptide 66 = target: T34, GUCY2C_ECD Peptide 66 (human)
T34 peptide: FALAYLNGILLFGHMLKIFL
Protocol: as §1

GUCY2C_ECD Peptide 16 = target: T35, GUCY2C_ECD Peptide 16 (human)
T35 peptide: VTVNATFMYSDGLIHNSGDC
Protocol: as §1

GUCY2C_ECD Peptide 12 = target: T36, GUCY2C_ECD Peptide 12 (human)
T36 peptide: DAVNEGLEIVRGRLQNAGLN
Protocol: as §1

B1: GUCY2C-1608 (bispecific antibody)
chain 1: DIQLTQSPSSLSASVGDRVTITCRASESVDYYGSSLLQWYQQKPGKAPKLLIYAASKLASGVPSRFSGSGSGTDFTLTISSLQPEDFATYYCQQTRKAYTFGQGTKLEIKGGGSGGGGEVQLVESGGGLVQPGGSLRLSCAASGFTFSDYYMTWVRQAPGKGLEWVAFIRNQARGYTSDHNPSVKGRFTISRDNAKNSLYLQMNSLRAEDTAVYYCARDRPSYYVLDYWGQGTTVTVSSGCPPCPAPEAAGAPSVFLFPPKPKDTLMISRTPEVTCVVVDVSHEDPEVKFNWYVDGVEVHNAKTKPREEQYNSTYRVVSVLTVLHQDWLNGKEYKCKVSNKALPAPIEKTISKAKGQPREPQVCTLPPSREEMTKNQVSLWCLVKGFYPSDIAVEWESNGQPENNYKTTPPVLDSDGSFFLYSKLTVDKSRWQQGNVFSCSVMHEALHNHYTQKSLSLSPG
chain 2: DIQMTQSPSSLSASVGDRVTITCTSSQSLFNVRSQKNYLAWYQQKPGKAPKLLIYWASTRESGVPSRFSGSGSGTDFTLTISSLQPEDFATYYCKQSYDLFTFGGGTKVEIKGGGGSGGGGEVQLVESGGGLVQPGGSLRLSCAASGFTFSSYWMHWVRQAPGKGLEWIGEIKPSNELTNVHEKFKDRFTISVDKAKNSAYLQMNSLRAEDTAVYYCTRTITTTEGYWFFDVWGQGTLVTVSSGCPPCPAPEAAGAPSVFLFPPKPKDTLMISRTPEVTCVVVDVSHEDPEVKFNWYVDGVEVHNAKTKPREEQYNSTYRVVSVLTVLHQDWLNGKEYKCKVSNKALPAPIEKTISKAKGQPREPQVYTLPPCREEMTKNQVSLSCAVKGFYPSDIAVEWESNGQPENNYKTTPPVLDSDGSFFLVSKLTVDKSRWQQGNVFSCSVMHEALHNHYTQKSLSLSPG
notes: also called GUCY2c CD3 bispecific
DELFIA TRF (GUCY2C_ECD Peptide 8): 148
DELFIA TRF (GUCY2C_ECD Peptide 76): 102
DELFIA TRF (GUCY2C_ECD Peptide 25): 131
DELFIA TRF (GUCY2C_ECD Peptide 75): 88.2
DELFIA TRF (GUCY2C_ECD Peptide 62): 91.2
DELFIA TRF (GUCY2C_ECD Peptide 50): 161
DELFIA TRF (GUCY2C_ECD Peptide 58): 98.5
DELFIA TRF (GUCY2C_ECD Peptide 40): 85.2
DELFIA TRF (GUCY2C_ECD Peptide 13): 102
DELFIA TRF (GUCY2C_ECD Peptide 88): 120
DELFIA TRF (GUCY2C_ECD Peptide 44): 90.5
DELFIA TRF (GUCY2C_ECD Peptide 79): 130
DELFIA TRF (GUCY2C_ECD Peptide 78): 97.8
DELFIA TRF (GUCY2C_ECD Peptide 32): 83.2
DELFIA TRF (GUCY2C_ECD Peptide 23): 96.2
DELFIA TRF (GUCY2C_ECD Peptide 52): 104
DELFIA TRF (GUCY2C_ECD Peptide 74): 100
DELFIA TRF (GUCY2C_ECD Peptide 7): 136
DELFIA TRF (GUCY2C_ECD Peptide 46): 106
DELFIA TRF (GUCY2C_ECD Peptide 5): 109
DELFIA TRF (GUCY2C_ECD Peptide 17): 112
DELFIA TRF (GUCY2C_ECD Peptide 86): 110
DELFIA TRF (GUCY2C_ECD Peptide 68): 73.5
DELFIA TRF (GUCY2C_ECD Peptide 22): 93.5
DELFIA TRF (GUCY2C_ECD Peptide 37): 107
DELFIA TRF (GUCY2C_ECD Peptide 69): 100
DELFIA TRF (GUCY2C_ECD Peptide 30): 125
DELFIA TRF (GUCY2C_ECD Peptide 63): 110
DELFIA TRF (GUCY2C_ECD Peptide 53): 87.8
DELFIA TRF (GUCY2C_ECD Peptide 9): 145
DELFIA TRF (GUCY2C_ECD Peptide 43): 104
DELFIA TRF (GUCY2C_ECD Peptide 26): 104
DELFIA TRF (GUCY2C_ECD Peptide 60): 150
DELFIA TRF (GUCY2C_ECD Peptide 66): 114
DELFIA TRF (GUCY2C_ECD Peptide 16): 105
DELFIA TRF (GUCY2C_ECD Peptide 12): 259
